From publication PMC5669500, “Scaffolding the cup-shaped double membrane in autophagy” (PLoS Computational Biology, 2017)

B1: Atg17, wild type (natural protein, Saccharomyces cerevisiae, UniProt Q06410 1-417, looked up)
chain: MNEADVTKFVNNARKTLTDAQLLCSSANLRIVDIKKKLSSWQLSISKLNFLIVGLRQQGKFLYTILKEGIGTKLIQKQWNQAVLVVLVDEMKYWQYEITSKVQRLDGIVNELSISEKDDTDPSKLGDYISRDNVNLLNDKLKEVPVIERQIENIKLQYENMVRKVNKELIDTKLTDVTQKFQSKFGIDNLMETNVAEQFSRELTDLEKDLAEIMNSLTQHFDKTLLLQDKKIDNDEREELFKVVQGDDKELYNIFKTLHEVIDDVDKTILNLGQFLQAKIKEKTELHSEVSEIINDFNRNLEYLLIFKDISNLIDSFKNSCTQDIQTTKELCEFYDNFEESYGNLVLEAKRRKDVANRMKTILKDCEKQLQNLDAQDQEERQNFIAENGTYLPETIWPGKIDDFSSLYTLNYNVKNP
notes: Atg17, Saccharomyces cerevisiae; The Atg17 chain of m1; source: E. coli BL21 (DE3), co-expressed with Atg31 and His6-Atg29 from pST39, purified (Ni-NTA, Superose 6)
B2: Atg17 mutant M1 (K318D/Q326D/K329D) (natural protein, Saccharomyces cerevisiae, UniProt Q06410 1-417, looked up)
chain: MNEADVTKFVNNARKTLTDAQLLCSSANLRIVDIKKKLSSWQLSISKLNFLIVGLRQQGKFLYTILKEGIGTKLIQKQWNQAVLVVLVDEMKYWQYEITSKVQRLDGIVNELSISEKDDTDPSKLGDYISRDNVNLLNDKLKEVPVIERQIENIKLQYENMVRKVNKELIDTKLTDVTQKFQSKFGIDNLMETNVAEQFSRELTDLEKDLAEIMNSLTQHFDKTLLLQDKKIDNDEREELFKVVQGDDKELYNIFKTLHEVIDDVDKTILNLGQFLQAKIKEKTELHSEVSEIINDFNRNLEYLLIFKDISNLIDSFDNSCTQDIDTTDELCEFYDNFEESYGNLVLEAKRRKDVANRMKTILKDCEKQLQNLDAQDQEERQNFIAENGTYLPETIWPGKIDDFSSLYTLNYNVKNP
notes: Atg17, Saccharomyces cerevisiae; The Atg17 chain of m2; source: E. coli BL21 (DE3), co-expressed with Atg31 and His6-Atg29 from pST39, purified (Ni-NTA, Superose 6)
B3: Atg17 mutant M2 (K318D/K329D/Y93E/W94E) (natural protein, Saccharomyces cerevisiae, UniProt Q06410 1-417, looked up)
chain: MNEADVTKFVNNARKTLTDAQLLCSSANLRIVDIKKKLSSWQLSISKLNFLIVGLRQQGKFLYTILKEGIGTKLIQKQWNQAVLVVLVDEMKEEQYEITSKVQRLDGIVNELSISEKDDTDPSKLGDYISRDNVNLLNDKLKEVPVIERQIENIKLQYENMVRKVNKELIDTKLTDVTQKFQSKFGIDNLMETNVAEQFSRELTDLEKDLAEIMNSLTQHFDKTLLLQDKKIDNDEREELFKVVQGDDKELYNIFKTLHEVIDDVDKTILNLGQFLQAKIKEKTELHSEVSEIINDFNRNLEYLLIFKDISNLIDSFDNSCTQDIQTTDELCEFYDNFEESYGNLVLEAKRRKDVANRMKTILKDCEKQLQNLDAQDQEERQNFIAENGTYLPETIWPGKIDDFSSLYTLNYNVKNP
notes: Atg17, Saccharomyces cerevisiae; The Atg17 chain of m3; source: E. coli BL21 (DE3), co-expressed with Atg31 and His6-Atg29 from pST39, purified (Ni-NTA, Superose 6)
B4: Atg17 mutant M3 (K8D/R14D/K249D) (natural protein, Saccharomyces cerevisiae, UniProt Q06410 1-417, looked up)
chain: MNEADVTDFVNNADKTLTDAQLLCSSANLRIVDIKKKLSSWQLSISKLNFLIVGLRQQGKFLYTILKEGIGTKLIQKQWNQAVLVVLVDEMKYWQYEITSKVQRLDGIVNELSISEKDDTDPSKLGDYISRDNVNLLNDKLKEVPVIERQIENIKLQYENMVRKVNKELIDTKLTDVTQKFQSKFGIDNLMETNVAEQFSRELTDLEKDLAEIMNSLTQHFDKTLLLQDKKIDNDEREELFKVVQGDDDELYNIFKTLHEVIDDVDKTILNLGQFLQAKIKEKTELHSEVSEIINDFNRNLEYLLIFKDISNLIDSFKNSCTQDIQTTKELCEFYDNFEESYGNLVLEAKRRKDVANRMKTILKDCEKQLQNLDAQDQEERQNFIAENGTYLPETIWPGKIDDFSSLYTLNYNVKNP
notes: Atg17, Saccharomyces cerevisiae; The Atg17 chain of m4; source: E. coli BL21 (DE3), co-expressed with Atg31 and His6-Atg29 from pST39, purified (Ni-NTA, Superose 6)
B5: Atg17 mutant M4 (K164D/K173D/R299D) (natural protein, Saccharomyces cerevisiae, UniProt Q06410 1-417, looked up)
chain: MNEADVTKFVNNARKTLTDAQLLCSSANLRIVDIKKKLSSWQLSISKLNFLIVGLRQQGKFLYTILKEGIGTKLIQKQWNQAVLVVLVDEMKYWQYEITSKVQRLDGIVNELSISEKDDTDPSKLGDYISRDNVNLLNDKLKEVPVIERQIENIKLQYENMVRDVNKELIDTDLTDVTQKFQSKFGIDNLMETNVAEQFSRELTDLEKDLAEIMNSLTQHFDKTLLLQDKKIDNDEREELFKVVQGDDKELYNIFKTLHEVIDDVDKTILNLGQFLQAKIKEKTELHSEVSEIINDFNDNLEYLLIFKDISNLIDSFKNSCTQDIQTTKELCEFYDNFEESYGNLVLEAKRRKDVANRMKTILKDCEKQLQNLDAQDQEERQNFIAENGTYLPETIWPGKIDDFSSLYTLNYNVKNP
notes: Atg17, Saccharomyces cerevisiae; The Atg17 chain of m5; source: E. coli BL21 (DE3), co-expressed with Atg31 and His6-Atg29 from pST39, purified (Ni-NTA, Superose 6)
B6: Atg17 mutant M5 (K92D/L141D) (natural protein, Saccharomyces cerevisiae, UniProt Q06410 1-417, looked up)
chain: MNEADVTKFVNNARKTLTDAQLLCSSANLRIVDIKKKLSSWQLSISKLNFLIVGLRQQGKFLYTILKEGIGTKLIQKQWNQAVLVVLVDEMDYWQYEITSKVQRLDGIVNELSISEKDDTDPSKLGDYISRDNVNLLNDKDKEVPVIERQIENIKLQYENMVRKVNKELIDTKLTDVTQKFQSKFGIDNLMETNVAEQFSRELTDLEKDLAEIMNSLTQHFDKTLLLQDKKIDNDEREELFKVVQGDDKELYNIFKTLHEVIDDVDKTILNLGQFLQAKIKEKTELHSEVSEIINDFNRNLEYLLIFKDISNLIDSFKNSCTQDIQTTKELCEFYDNFEESYGNLVLEAKRRKDVANRMKTILKDCEKQLQNLDAQDQEERQNFIAENGTYLPETIWPGKIDDFSSLYTLNYNVKNP
notes: Atg17, Saccharomyces cerevisiae; The Atg17 chain of m6; source: E. coli BL21 (DE3), co-expressed with Atg31 and His6-Atg29 from pST39, purified (Ni-NTA, Superose 6)

Molecular target: the molecule itself
Assay: SEC; ternary complex co-expressed in E. coli, captured on Ni-NTA by His6-Atg29, then Superose 6 10/300GL in 20 mM Tris pH 8, 200 mM NaCl, 0.1 mM TCEP; peak fractions analysed by SDS-PAGE

Binding result, binds:
B1
B2
B3
B4
B5
B6
